This is an account of results in the nanobody polyreactivity screen of Harvey et al. (2022).

This data set in a line: yeast display, Sf9 membrane polyspecificity reagent, FACS + sequencing; frameworks hold sequencing errors. Summed up:
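Sorting gates, low and high (top ~1%), were placed on anti-HA fluorescence to track expression and on streptavidin fluorescence to track reagent binding. A clone's polyreactivity label is taken from the gate it came out of. The reagent was 10% biotinylated, detergent-solubilized Sf9 membrane, applied for 1 hour at 4 °C to galactose-induced yeast display cells.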
In the case of “QVQLVESGGGLVQAGGSLRLSCAACGSIFKGNAMGWYRQAPGKERELVARISSGGSTYYADSVKGRFTISRDNAKNTVYLQMNSLKPEDTAVYYCAARVYTSYIRQYTYSYYYWGQGTQVTVSS”, the “polyreactivity (PSR sort gate)” value was “high polyreactivity”.

Take “QVHLVESGGGVVQAGGSLRLSCAASGRIFHRYEMGWYRQAPVKERELVAAINWRTGNTYYADSVKGRFTISRDNAKNTVYLQMNSLKAEDTAVYYCNARYRSDYWGIQYDYWGQGTQVTVSS”: the “polyreactivity (PSR sort gate)” value is listed as “high polyreactivity”.

Take “QVQLVESGGGLVQAGGSLRLSCAASGRIFDKNAMGWYRQAPGKERELVAAINRSGGRTYYADSVKGRFTISRDNAKNTVYLQMNSLKPEDTAVYYCAADTQGSRYDYWGQGTQVTVSS”: the “polyreactivity (PSR sort gate)” value is on record as “high polyreactivity”.

Take “QVQLVESGGGLVQAGGSLRLSCAASGRTFYTNAMGWYRQAPGKERELVAVISRGGTTYYADSVKGRFTISRDNAKNTVYLQMNSLKPEDTAVYYCAKQRPSGESSSQMGSWGQGTQVTVSS”: the “polyreactivity (PSR sort gate)” value is on record as “low polyreactivity”.

Consider “QVQLVESGGGLVQARGSLRLSCAASGITFSRNVMGWYRQAPGKERELVAAISRSGGRTYYADSVKGRFTISRDNAKNTVYLQMNSLKPEVTAVYYCNRDIGGTTVLDDYCGQGTQVTVSS”, for which the “polyreactivity (PSR sort gate)” value was “low polyreactivity”.

Consider “QVQLVESGGCLVQAGGSLRFTCAASGSIFPYYAMGWYRQAPGKERELVAAISGSGGSTYYADSVTGRFTISRDNAKYTVYLQMNSLNQEDTAVYYCAARPFARYEYWGQGTQVTVSS”, for which the “polyreactivity (PSR sort gate)” value is listed as “low polyreactivity”.

With “QVQLVESVGGLVQAGGSLRLSCAASGRTFLYYTMGWYRQAPGKERELVAAISTSGGSTNYADSVKGRFTISRDNAKNTVYLQMNSLKPEDTAVYYCAAETSTNPEAYEYWGQGTQVTVSS”, the “polyreactivity (PSR sort gate)” value is “low polyreactivity”.

As to “QVQLVESGGGLVQAGGSLRLSCAASGRTFSYYTMGWYRQAPGKERELVAAITSSGGSTYYADSVKGRFTISRDNAKNTVYLQMNSLKPEDTAVYYCAVLNYAGKYYYWGQGTQVTVSS”, the “polyreactivity (PSR sort gate)” value is “high polyreactivity”.

Consider “QVQLVESGGGLVQAGGSLRLSCAASGSIFGVNAMGWYRQAPGKERELVAAISSGGSTNYADSVKGRFTISRDNAKNTVYLQMNSLKPEDTAVYYCAADTKTRSNYDYWGQGTQVTVSS”, for which the “polyreactivity (PSR sort gate)” value is given as “low polyreactivity”.

As for “QVQLVESGGGLVQAGGSLRLSCAASGSIFENYAMGCYRQAPGKERELVAAISSSGDSTYYADSVKGRFTISRDNAKNTVYLQMNSLKPEDTAVYYCAKGYRRVYGPFYYWGQVTQVTVSS”, the “polyreactivity (PSR sort gate)” value is recorded as “low polyreactivity”.

In the case of “QVQLVESGGGLVQAGGSLRLSCAASGRIFHHNVMGWYRPAPGKERELVAAISQSGGSTYYADSVKGRFTISRDNAKYTVYVQMNSLKPEDTAVYYCNAGAAGRRYNYWGQGTQVTVSS”, the “polyreactivity (PSR sort gate)” value was “low polyreactivity”.

For “QVQLVESGGGLVQAGGSLRLSCAASGSTFFGNTMGWYRQAPGKERELVAAITYRGSTYYADSVKGRFTISRDNAKNTVYLQMNSLKPEDTAVYYCAADGRWYNSESEYDYWGQGTQVTVSS”, the “polyreactivity (PSR sort gate)” value is “low polyreactivity”.

Regarding “QVQLVESGGGLVQAGGSLRLSCAASGSIFFSYAMGWYRQAPGKEREGGSTDYADSVKGRFTISRDNAKNTVYLQMNSLKPEDTAVYYCAASVRGIRYDYWGQGTQVTVSS”, the “polyreactivity (PSR sort gate)” value is listed as “low polyreactivity”.

Turning to “QVQLVESGGGLVQAGGSLRLSCAASGSIFDSYVMGWYRQAPGKERELVAAITYSGGSTYADSVKGRFTISRDNAKNTVYLQMNSLKPEDTAVYYCAADLSGGSRYDYWGQGTQVTVSS”, the “polyreactivity (PSR sort gate)” value is reported as “low polyreactivity”.

On to “QVQLVESGGRLVQAGGSLRLSCAASGRIFAFYAMGWYRQAPGKERELVAAITSGGSTKYADSVKGRFTISRDNAKNTVYLQMNSLKPEDTAVYYCAAVESGYGSKRFYYWGQGTQVTVSS”, for which the “polyreactivity (PSR sort gate)” value is “high polyreactivity”.

Turning to “QVQLVESGGGLVQAGGSLRLSCAASGLTYYTYAMGWYRQAPGKERELVAAITASGGRTYYADSVKGRFTISRDNAKNTVYLQMNSLKPEDTAVYYCAADIRGDTYDYWGQGTQVNVSS”, the “polyreactivity (PSR sort gate)” value was “high polyreactivity”.

Take “QVQLVESGGGLVQAGGSLRLSCAASGLIFGRNVMGWYRQAPGKERELVAAISWSGGRTYYADSVKGRFTISRDNAKNTVYLQMNSLKPEDTAVYYCAADDGPGFDYWGQGTQVTVSS”: the “polyreactivity (PSR sort gate)” value is on record as “high polyreactivity”.
